These results are taken from patent US20110104788A1 (published 2011).

Sequences and labels used below:
B3: mouse coagulation factor X (enzyme)
chain: ANSFFEEFKKGNLERECMEEICSYEEVREIFEDDEKTKEYWTKYKDGDQCESSPCQNQGACRDGIGGYTCTCSEGFEGKNCELFVRKLCRLDNGDCDQFCREEQNSVVCSCASGYFLGNDGKSCISTAPFPCGKITTGRRKRSVALNTSDSELDLEDALLDEDFLSPTENPIELLNLNETQPERSSDDLVRIVGGRECKDGECPWQALLINEDNEGFCGGTILNEFYILTAAHCLHQARRFKVRVGDRNTEKEEGNEMVHEVDVVIKHNKFQRDTYDYDIAVLRLKTPITFRMNVAPACLPQKDWAESTLMTQKTGIVSGFGRTHEKGRQSNILKMLEVPYVDRNTCKLSTSFSITQNMFCAGYEAKLEDACQGDSGGPHVTRFKNTYYVTGIVSWGEGCARKGKYGIYTKVTTFLKWIDRSMKARVGPTAETPRTAGPPN

The target in test [1] is T1, adenovirus serotype 5 (Ad5) virus particle (human adenovirus serotype 5, UniProt P04133 1-952).
T1 construct: also called Ad5CMVlacZ (control virus with unmodified hexon); intact virus Ad5
The experiment in a line: SPR; biotinylated EGF2-SP FXa coupled to SA chip, Ad5 injected. (In general: In SPR one partner is held on a chip, and binding of the other changes the refractive index at the surface.)

Test [2] concerns the target T2, human coagulation factor X (FX), full-length zymogen (human, UniProt P00742 41-488, genetically encoded glutamic acid residues of the Gla domain converted to γ-carboxyglutamic acid).
T2 construct: mature; also called human FX; hFX
The experiment in a line: SPR (Biacore T100); human FX immobilised on CM5 chip, inhibitor injected; heterogeneous ligand model.

Test [3] concerns the target B3. The experiment in a line: SPR (Biacore T100); mouse FX immobilised on CM5 chip, inhibitor injected; heterogeneous ligand model.
The target of test [4] is Ixolaris, 12 kDa two-Kunitz domain protein isolated from tick salivary gland (tick, UniProt Q964Q0 27-165).

B1: human FXa mutant containing the C-terminal EGF2-SP domain (EGF2-SP FXa) (enzyme)
chain: TRKLCSLDNGDCDQFCHEEQNSVVCSCARGYTLADNGKACIPTGPYPCGKQTLERIVGGQECKDGECPWQALLINEENEGFCGGTILSEFYILTAAHCLYQAKRFKVRVGDRNTEQEEGGEAVHEVEVVIKHNRFTKETYDFDIAVLRLKTPITFRMNVAPACLPERDWAESTLMTQKTGIVSGFGRTHEKGRQSTRLKMLEVPYVDRNSCKLSSSFIITQNMFCAGYDTKQEDACQGDSGGPHVTRFKDTYFVTGIVSWGEGCARKGKYGIYTKVTAFLKWIDRSMKTRGLPKAKSHAPEVITSSPLK
modifications: biotinylated with biotin-FPRCK
notes: domain: EGF2-SP; also called EGF2-SP fragment; rFX EGF2-SP
In the case of B1, the binding result in test [1] was “no binding”.

B2: Factor X-binding protein (X-bp) from Deinagkistrodon acutus (other)
chain 1: DCSSGWSSYEGHCYKVFKQSKTWADAESFCTKQVNGGHLVSIESSGEADFVGQLIAQKIKSAKIHVWIGLRAQNKEKQCSIEWSDGSSISYENWIEEESKKCLGVHIETGFHKWENFYCEQQDPFVCEA
chain 2: DCPSDWSSYEGHCYKPFNEPKNWADAENFCTQQHTGSHLVSFQSTEEADFVVKLAFQTFDYGIFWMGLSKIWNQCNWQWSNAAMLKYTDWAEESYCVYFKSTNNKWRSITCRMIANFVCEFQA
What is called Kd is the free concentration of one partner at which half of the binding sites on the other are occupied at equilibrium, for simple one-to-one binding. A higher Kd goes with weaker binding. As usually defined, the koff is a measure of how fast the partners let go of each other. For orientation: kon means the rate constant with which the complex forms. Read a low kon as slower complex formation. In the case of B2, in test [2], the Kd is 0.118 nM, the koff was determined as 0.00023 s⁻¹ and the kon worked out at 1.96e+06 M⁻¹ s⁻¹. Further, in test [3], the Kd was found to be 1.04 nM, the koff was 0.00031 s⁻¹ and the kon is 296000 M⁻¹ s⁻¹.

In test [4], B3 showed a Kd of 0.000515 nM, a koff of 8.1e-07 s⁻¹ and a kon of 1.57e+06 M⁻¹ s⁻¹.
